The text below walks through data of patent US20190211104A1 (Merck KGaA, published 2019).

In the assay the target is T1, carboxyterminal peptide of PD-L1 (SEQ ID NO: 1, RLRKGRMMDVKKCGIQDTNSKKQSDTHLEET) (human).
T1 construct: The immunogen was the KLH-coupled peptide; also called immunogen
T1 peptide: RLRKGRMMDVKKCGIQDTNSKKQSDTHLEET
Briefly: ELISA, wells coated with the peptide immunogen.

B1: inventive antibody clone MKP1A07310 (rabbit monoclonal recombinant anti-PD-L1 antibody) (antibody, V domains shown)
VH: QEQLVESGGGLVTPGGSLTLTCTVSTIDLSTFAISWVRQAPGKGLEWIGTINTDLTTYYVNWAKGRFTISKTSSTTVDLKMTGLTIEDTATYFCARKLFGNGNVWGPGTLVTVSS
VL: QVLTQTPSPVSASVGSTVTINCQASQSLHRNNYLSWFQQKPGQPPKQLIYQASTLASGVSSRFSGSGSGTQFTLTISDVVCDDAATYYCLGGVSGGPYPFGGGTEVVVKG
notes: Rabbit monoclonal, produced as recombinant antibody in HEK-293 cells; VH 110, VL 111) and calls clone MKP1A07310 'the inventive antibody'; also called MKP1A7310; MKP-1A-73-10
Regarding B1, the binding result is on record as “binds”.
